Biological target: HER2 (GST-tagged, human) (human, UniProt P04626 676-1255)
Experiment: electrochemical aptasensor (cyclic voltammetry); Ag NR@PEI-Ag nanohybrid label cast after HER2; LOD 10 pg (not a Kd); Aptamer 0.25 uM loaded on Au electrode; HER2 cast and dried under infrared lamp, PBS wash; CV in 0.1 M PBS pH 7, 100 mV/s; temperature not stated
Details: protein: commercial; tags: GST

B1: HER2 aptamer (ssDNA)
DNA: GGGCCGTCGAACACGAGCATGGTGCGTGGACCTAGGATGACCTGAGTACTGTCC
modifications: 5'-thiol (SH)
binding result: binds
